The data set in a line: protein stability index of a GFP-peptide fusion (yeast GPS) (PSI 1-4); higher = more stable; sorted into four equal gates, so the index is relative within each strain. Put shortly:
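Tiled 17-residue peptides from yeast proteins were fused downstream of GFP on a plasmid that also expresses Cherry, and the pooled library was carried in yeast. Mid-log cultures grown in leucine-free medium were sorted into four equal gates by GFP/Cherry fluorescence ratio. Plasmids from each gate were PCR-amplified and Illumina-sequenced, and reads were assigned to strains by barcodes. Each peptide's protein stability index is the sum, over gates, of the gate's read frequency multiplied by its gate number.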

± gives the uncertainty stated by the source.

As to PNIMLIFGSGFGSADDT [FAS1], the protein stability index is 3.07 ± 0.07 (doa10∆), 2.92 ± 0.073 (pdr5∆), 3.12 ± 0.067 (san1∆) and 2.24 ± 0.065 (ubr1∆).

On to PNLGPQLWLNSSGDFDD [GRR1], for which the protein stability index by setting is: (doa10∆) 2.97 ± 0.16; (pdr5∆) 3.16 ± 0.22.

In the case of PNRLVKELQYDNEQNLE [PRE2], the protein stability index amounted to 2.97 ± 0.099 (pdr5∆), 2.8 ± 0.094 (san1∆) and 3.08 ± 0.073 (ubr1∆).

Turning to PNVCNMKQYRDFLGVAS [PRP28], the protein stability index runs as follows: (doa10∆) 1.99 ± 0.14; (pdr5∆) 2.26 ± 0.091; (san1∆) 2.37 ± 0.077; (ubr1∆) 1.99 ± 0.072.

PPDSDSSISVMGENEKP [RPT3]: the protein stability index is, setting by setting: (doa10∆) 1.47 ± 0.16; (pdr5∆) 1.22 ± 0.12; (san1∆) 1.21 ± 0.15; (ubr1∆) 1.77 ± 0.2.

Consider PPKPRKVLQLLRLTRIN [RPL7A], for which the protein stability index reads like this: (doa10∆) 1.95 ± 0.095; (pdr5∆) 1.57 ± 0.077; (san1∆) 1.7 ± 0.12; (ubr1∆) 1.09 ± 0.061.

Regarding PPSSFGRSHTRNSTRSS [REC8], the protein stability index (doa10∆) was 3.04 ± 0.14, the protein stability index (pdr5∆) came to 2.65 ± 0.17, the protein stability index (san1∆) amounted to 3.14 ± 0.087 and the protein stability index (ubr1∆) was found to be 2.96 ± 0.17.

Take PQEPKHIQEEEEQDVDM [RPC19]: the protein stability index by setting is: (doa10∆) 3.41 ± 0.09; (pdr5∆) 3.36 ± 0.09; (san1∆) 3.12 ± 0.05; (ubr1∆) 3.28 ± 0.056.

Regarding PQFDSTQPKSSSSMDMQ [SSN3], the protein stability index is 2.94 ± 0.069 (doa10∆), 3 ± 0.068 (pdr5∆), 2.95 ± 0.05 (san1∆) and 3.02 ± 0.044 (ubr1∆).

The sequence PQINILQPIKGESARRF [RPC40] registered a protein stability index (doa10∆) of 2.17 ± 0.096, a protein stability index (pdr5∆) of 2.58 ± 0.1, a protein stability index (san1∆) of 2.43 ± 0.12 and a protein stability index (ubr1∆) of 2.88 ± 0.12.

With PQKPVPLNVLQDQYKEG [SNF2], the protein stability index was found to be 3.01 ± 0.07 (doa10∆), 3.33 ± 0.096 (pdr5∆), 3.1 ± 0.086 (san1∆) and 2.94 ± 0.044 (ubr1∆).

On to PQTPLVEPVTERTKLQE [SNU114], for which the protein stability index is, setting by setting: (doa10∆) 3.29 ± 0.15; (pdr5∆) 3.07 ± 0.18; (san1∆) 3.08 ± 0.1; (ubr1∆) 3.31 ± 0.13.

As to PQVLINRDPVKHAEFDL [SIR2], the protein stability index was determined as 2.39 ± 0.14 (doa10∆), 3.04 ± 0.093 (pdr5∆), 3.08 ± 0.12 (san1∆) and 2.79 ± 0.1 (ubr1∆).

In the case of PQYINYSSIPSLQDSII [SSN2], the protein stability index worked out at 2.97 ± 0.13 (doa10∆), 2.79 ± 0.12 (pdr5∆), 2.9 ± 0.21 (san1∆) and 3.16 ± 0.086 (ubr1∆).

PRALQPSQFGMLCTADT [RET1]: the protein stability index reads like this: (doa10∆) 1.87 ± 0.1; (pdr5∆) 1.57 ± 0.05; (san1∆) 2.02 ± 0.13; (ubr1∆) 2.18 ± 0.051.

In the case of PREDKENNRLLFECRTC [RPB9], the protein stability index is 3.29 ± 0.14 (doa10∆), 3.17 ± 0.13 (pdr5∆), 3.02 ± 0.17 (san1∆) and 3.29 ± 0.16 (ubr1∆).

Turning to PRQRMEEVVSNDEGVWD [PRP8], the protein stability index reads like this: (doa10∆) 3.45 ± 0.068; (pdr5∆) 3.45 ± 0.056; (san1∆) 2.87 ± 0.06; (ubr1∆) 3.06 ± 0.048.

Take PSCNNMLLITSGDSGVY [RPC11]: the protein stability index turned out to be 1.32 ± 0.077 (doa10∆), 1.55 ± 0.22 (pdr5∆) and 2.24 ± 0.17 (ubr1∆).

With PSDWQRNSFIRDMIMKR [ITC1], the protein stability index reads like this: (doa10∆) 3.01 ± 0.072; (pdr5∆) 3.03 ± 0.073; (san1∆) 3.21 ± 0.055; (ubr1∆) 2.89 ± 0.047.

PSEILHLILDKLNQKYD [GRR1] yielded a protein stability index (doa10∆) of 3.14 ± 0.096, a protein stability index (pdr5∆) of 2.48 ± 0.068, a protein stability index (san1∆) of 2.54 ± 0.19 and a protein stability index (ubr1∆) of 2.46 ± 0.061.

Consider PSRQFDHYESNQLVAKL [SRB8], for which the protein stability index is, setting by setting: (doa10∆) 3.02 ± 0.061; (pdr5∆) 2.85 ± 0.064; (san1∆) 2.98 ± 0.064; (ubr1∆) 3.17 ± 0.041.

As to PSTAIHTSPHQPSDVKP [SIR4], the protein stability index is 2.81 ± 0.052 (doa10∆), 2.95 ± 0.049 (pdr5∆), 2.76 ± 0.046 (san1∆) and 2.36 ± 0.034 (ubr1∆).

As for PSYYGVRDTSPHGISVF [BRR2], the protein stability index by setting is: (doa10∆) 1.35 ± 0.069; (pdr5∆) 1.41 ± 0.057; (san1∆) 2.29 ± 0.077; (ubr1∆) 1.94 ± 0.045.

As to PTESYLQYIIHDTLNNE [BRR2], the protein stability index (doa10∆) is 2.22 ± 0.058, the protein stability index (pdr5∆) was found to be 2.43 ± 0.07, the protein stability index (san1∆) came out at 2.37 ± 0.097 and the protein stability index (ubr1∆) came to 2.26 ± 0.065.

In the case of PTFSTHAQLLLSDRITG [PRP8], the protein stability index came out at 1.7 ± 0.033 (doa10∆), 1.87 ± 0.036 (pdr5∆), 1.57 ± 0.051 (san1∆) and 1.95 ± 0.031 (ubr1∆).

As to PTKLLVSEVAKIMQEAT [PRE8], the protein stability index by setting is: (doa10∆) 2.63 ± 0.067; (pdr5∆) 2.58 ± 0.085; (san1∆) 2.72 ± 0.11; (ubr1∆) 2.73 ± 0.062.

On to PTLPRSDRECPKCHSRE [RPB9], for which the protein stability index is 2.79 ± 0.052 (doa10∆), 2.92 ± 0.056 (pdr5∆), 2.82 ± 0.053 (san1∆) and 2.84 ± 0.043 (ubr1∆).

For the sequence PTSPNYSPTSPSYSPTS [RPO21], the protein stability index by setting is: (doa10∆) 2.78 ± 0.034; (pdr5∆) 2.9 ± 0.031; (san1∆) 3.064 ± 0.026; (ubr1∆) 2.969 ± 0.026.

In the case of PVGSYEREQCRAGGAAA [PRE7], the protein stability index stood at 3.02 ± 0.24 (doa10∆), 2.98 ± 0.18 (pdr5∆), 3.32 ± 0.17 (san1∆) and 2.78 ± 0.097 (ubr1∆).

PWFWLLPLWHLLNRIPR [POP1] came in with a protein stability index (doa10∆) of 2.57 ± 0.084, a protein stability index (pdr5∆) of 1.56 ± 0.054, a protein stability index (san1∆) of 1.33 ± 0.12 and a protein stability index (ubr1∆) of 1.26 ± 0.046.

Regarding PYFPGGSIAMARVLFDD [CYT1], the protein stability index reads like this: (doa10∆) 2.29 ± 0.14; (pdr5∆) 1.88 ± 0.1; (san1∆) 2.61 ± 0.11; (ubr1∆) 2.69 ± 0.093.

PYGVYHPPFIKYACLAI [SIN4] came in with a protein stability index (doa10∆) of 1.42 ± 0.048, a protein stability index (pdr5∆) of 1.44 ± 0.04, a protein stability index (san1∆) of 1.46 ± 0.073 and a protein stability index (ubr1∆) of 1.17 ± 0.034.

With PYLVANVVEVMDMNEIE [RPT5], the protein stability index was determined as 2.86 ± 0.093 (doa10∆), 2.19 ± 0.063 (pdr5∆), 1.91 ± 0.077 (san1∆) and 2.32 ± 0.069 (ubr1∆).

In turn, QADLQAMDRAHRIGQKK [ISW2] registered a protein stability index (san1∆) of 3.14 ± 0.23.

With QAELLQLAVKIINKVLD [YJL039C/NUP192], the protein stability index by setting is: (doa10∆) 2.33 ± 0.25; (pdr5∆) 3.09 ± 0.091; (san1∆) 2.74 ± 0.13.

QAKLKKNVETLEEKILA [SMC4] displayed a protein stability index (doa10∆) of 3.09 ± 0.08, a protein stability index (pdr5∆) of 2.98 ± 0.077, a protein stability index (san1∆) of 3.13 ± 0.077 and a protein stability index (ubr1∆) of 3.13 ± 0.066.

Sequence QAPTTGFSFGSQLGGNK [YJL041W/NSP1] registered a protein stability index (doa10∆) of 3.02 ± 0.051, a protein stability index (pdr5∆) of 3.01 ± 0.054, a protein stability index (san1∆) of 3.37 ± 0.045 and a protein stability index (ubr1∆) of 3.17 ± 0.036.

As for QAQAQAQAQAQAQAQAH [GAL11], the protein stability index turned out to be 2.84 ± 0.071 (doa10∆), 3.05 ± 0.084 (pdr5∆), 2.84 ± 0.084 (san1∆) and 3.1 ± 0.1 (ubr1∆).

(Values after the supplement of paper PMC9732359.)
